T1: ScMre11p (Saccharomyces cerevisiae, UniProt P32829 1-692)
T1 sequence: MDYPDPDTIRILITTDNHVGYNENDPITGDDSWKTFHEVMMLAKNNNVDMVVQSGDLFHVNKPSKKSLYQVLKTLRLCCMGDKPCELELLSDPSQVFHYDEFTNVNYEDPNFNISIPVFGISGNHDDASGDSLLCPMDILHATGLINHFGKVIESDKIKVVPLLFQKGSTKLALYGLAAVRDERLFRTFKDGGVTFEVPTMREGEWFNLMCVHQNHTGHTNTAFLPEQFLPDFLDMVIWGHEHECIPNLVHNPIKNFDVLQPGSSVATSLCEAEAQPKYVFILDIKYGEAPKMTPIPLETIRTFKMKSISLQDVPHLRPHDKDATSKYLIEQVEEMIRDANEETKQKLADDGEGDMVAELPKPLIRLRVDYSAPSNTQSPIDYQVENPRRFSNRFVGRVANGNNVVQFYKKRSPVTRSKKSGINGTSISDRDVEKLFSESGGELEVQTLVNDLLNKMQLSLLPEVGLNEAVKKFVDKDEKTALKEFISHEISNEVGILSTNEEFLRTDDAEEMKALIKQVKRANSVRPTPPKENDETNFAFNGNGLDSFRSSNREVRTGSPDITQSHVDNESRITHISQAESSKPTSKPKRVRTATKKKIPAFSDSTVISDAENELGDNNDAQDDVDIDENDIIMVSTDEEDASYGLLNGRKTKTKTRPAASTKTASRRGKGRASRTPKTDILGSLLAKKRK

B1: 6G3 G4 DNA (structured_DNA)
DNA: AATTCTGGGTGTGTGGGTGTGTGGGTGTGTGGGTGTGTGGGTGTGTGGGTGTGG

What was measured:
[1] = target: T1, ScMre11p; experiment: EMSA
[2] = target: T1, ScMre11p; experiment: EMSA; remark: listed apart in the source

Binder	Kd [1] [nM]	binding result [2]
AATTCTGGGTGTGTGGGTGTGTGGGTGTGTGGGTGTGG (structured_DNA) [4G3 G4 DNA]	70	–
B1	–	binds

From PMC1188515
